{
  "source": "paper PMC5673899",
  "about": "“Structural basis for receptor recognition of pollen tube attraction peptides” (Nature Communications, 2017)",
  "key": {"MIK2^LRR": {"system": "MIK2^LRR", "test": "In vitro pull-down with MIK2^LRR", "format": "binding, Arabidopsis", "settings": "Ni-NTA, excess AtLURE1.2, on ice 30 min, washed five times; SDS-PAGE, Coomassie blue", "description": "(§1) The genes of AtPRK3 ^LRR (residues 1–241), AtPRK4 ^LRR (residues 1–277), AtPRK5 ^LRR (residues 1–279), AtPRK6 ^LRR (residues 1–262), MIK1 ^LRR (residues 1–633), MIK2 ^LRR (residues 1–707) were amplified from Arabidopsis cDNA library by PCR and cloned into pFastBac-1 vector with a C-terminal 6 × His-tag. Their identities were confirmed by sequencing. The mature form of AtLURE1.1 (residues 20–94), AtLURE1.2 (residues 20–90), AtLURE1.3 (residues 21–91), and AtLURE1.4 (residues 20–90) were cloned into pFastBac-1 vector, with a modified N-terminal hemolin signal peptide and 6 × His-SUMO tag. Point mutation constructs were generated by QuickChange Site-Directed Mutagenesis Kit (Strategene). All the proteins were expressed using the Bac-to-Bac baculovirus expression system (Invitrogen) in High Five cells at 22 °C. One liter of High Five cells (2.0 × 10^6 cells mL^−1) cultured in the medium from Expression Systems was infected with 25 ml recombinant baculovirus and the media was collected after 72 h of infection. Secreted LRR proteins were purified using Ni-NTA (Novagen) and size-exclusion chromatography (Hiload 200, GE Healthcare) in buffer containing 10 mM Bis-Tris pH 6.0 and 100 mM NaCl. […]\nThe purified His-tagged ectodomains of AtPRK proteins and MIK1, 2 were used to pull-down the AtLURE1.2 peptide. […] All the eluted samples were analyzed by SDS-PAGE and visualized by Coomassie blue staining. […]"}, "AtPRK3^LRR": {"system": "AtPRK3^LRR", "test": "Gel filtration assay with AtPRK3^LRR", "format": "binding, Arabidopsis", "settings": "4 °C 30 min, 10 mM Bis-Tris pH 6.0, 100 mM NaCl", "description": "as §1, with “NaCl. The His-SUMO tag of the AtLURE proteins was removed by Prescission Protease at 4 °C overnight in buffer containing 25 mM Tris pH 8.0 and 150 mM NaCl.” for “NaCl.”"}, "MIK1^LRR": {"system": "MIK1^LRR", "test": "Gel filtration assay with MIK1^LRR", "format": "binding, Arabidopsis", "settings": "4 °C 30 min, 10 mM Bis-Tris pH 6.0, 100 mM NaCl", "description": "as §1, with “NaCl. The His-SUMO tag of the AtLURE proteins was removed by Prescission Protease at 4 °C overnight in buffer containing 25 mM Tris pH 8.0 and 150 mM NaCl.” for “NaCl.”"}, "[1]": {"system": "AtPRK3^LRR and AtPRK6^LRR", "test": "Gel filtration assay, AtPRK3^LRR-AtPRK6^LRR interaction in the presence of AtLURE1.2", "format": "binding, Arabidopsis", "description": "The AtPRK6^LRR and AtLURE1.2 proteins purified as described above were subjected to gel filtration (Hiload 200, GE Healthcare) in buffer containing 10 mM Bis-Tris pH 6.0 and 100 mM NaCl. A mixture of the purified AtPRK6^LRR and AtLURE1.2 proteins with a molar ratio of about 1:3 were incubated in 4 °C for 30 min before gel filtration analysis. Samples from relevant fractions were applied to SDS-PAGE and visualized by Coomassie blue staining. Similar procedures were used to verify the interaction of AtLURE1.2 with the other LRR proteins. […]\nthe presence or absence of AtLURE1.2 in vitro. […]\nassay. Left panel: gel-filtration profile of the AtPRK3LRR and AtPRK6LRR proteins.\nA280 (mAU), […] at 280 nm. Right panel: Coomassie blue staining of the peak fractions shown on the top following SDS–PAGE. M, molecular weight ladder (kDa). Numbers on top of SDS-PAGE indicate elution […]\nAtLURE1.2 under gel filtration assay. The assays were performed as described in […]\n(1 picture or pasted object on this page, not shown here)"}, "[2]": {"system": "prk6 pollen tubes transformed with PRK6 of wild-type", "test": "Gelatin-beads assay, prk6 pollen tubes transformed with wild-type PRK6", "format": "cell-based, Arabidopsis", "settings": "beads with 250 nM wild-type AtLURE1.2; 10–23 pollen tubes per assay, three assays", "description": "Attraction activities of mutant AtLURE1.2 peptides were examined for semi-in-vivo pollen tubes growing through cut, pollinated pistils by gelatin-beads assay and wavy assay, [20]. For the gelatin-beads assay, pollen tubes were grown on solid pollen germination medium poured into a mold made with 1-mm thick silicone rubber and cover glasses. After hand-pollination, the topside cover glass was removed and the medium was covered with hydrated silicone oil (KF-96–100CS; Shin-Etsu). Attraction of pollen tubes toward the peptide was evaluated using AtLURE1 peptide containing gelatine beads under an inverted microscope (IX71, Olympus) equipped with a micro-manipulator (Narishige). For the AtLURE1-responsive wavy assay, the purified AtLURE1.2 peptide was added to solid pollen germination medium, which was melted at 70 °C and then cooled to a certain degree. The mixture was mixed by vortexing and poured into the mold. Pollen tubes of each genotype were grown through cut styles, as mentioned above. Each peptide (25 μM in 10 mM Bis-Tris (pH 6.0) and 100 mM NaCl) was diluted to 250 nM by cultivation medium in both assays. To examine reactivity of PRK6 mutants to AtLURE1.2, constructs for PRK6 mutants, D234A, N239A, and ΔN239I240, were generated by site-directed mutagenesis from a wild-type PRK6 vector, pPZP221-pPRK6::PRK6-mRuby2 (ref. [20]). […]"}},
  "note": "“Also recorded” adds a separate entry of the source.",
  "data": [
    {"molecule": "AtLURE1.2: mature form of AtLURE1.2 (residues 20–90), defensin-like cysteine-rich peptide expressed in insect cells (protein, left off: His6, N-terminal, cleaved | SUMO, N-terminal, cleaved, mature form of AtLURE1.2 (residues 20–90), defensin-like cysteine-rich peptide expressed in insect cells) TLINGSSDEERTYSFSPTTSPFDPRSLNQELKIGRIGYCFDCARACMRRGKYIRTCSFERKLCRCSISDIK", "values": [
      {"measurement": "interaction in pull-down assay", "setting": "MIK2^LRR", "value": "none of the other LRR proteins was found to interact"},
      {"measurement": "interaction in gel filtration", "setting": "AtPRK3^LRR", "value": "none of the purified AtPRK3^LRR, MIK1^LRR or MIK2^LRR proteins showed detectable interaction"},
      {"measurement": "interaction in gel filtration", "setting": "MIK1^LRR", "value": "no interaction; also recorded: none of the purified AtPRK3^LRR, MIK1^LRR or MIK2^LRR proteins showed detectable interaction"},
      {"measurement": "AtPRK3^LRR-AtPRK6^LRR complex formation in the presence of AtLURE1.2", "setting": "[1]", "value": "do not form a complex; also recorded: failed to detect AtPRK6^LRR−AtPRK3^LRR interaction"},
      {"measurement": "pollen tube attraction", "setting": "[2]", "value": "attraction was normally observed"}
    ]}
  ]
}
